In the test the target is purified full-length Arpin (N-terminal 6xHis-tagged) (human) (UniProt Q7Z6K5). The test is described as follows: SEC-MALS; purified Arpin and purified ARC4 of TNKS2 mixed; 15-mL KW-803 column (Shodex), dn/dc 0.183 mL/g.

In turn, ARC4 of TNKS2 (purified) had a stoichiometry N of 1.

The values above are taken from article PMC8073056.
